Source: patent publication US20200199209A1 (JIANGSU HENGRUI MEDICINE, published 2020)

Experiments:
[1] = biological target: T1, human sclerostin (SOST) (human, UniProt Q9BQB4 24-213); test: blocking of human SOST binding to human LRP-6 (Test Example 2)
T1 construct: also called human SOST; h-SOST
T1 sequence (looked up): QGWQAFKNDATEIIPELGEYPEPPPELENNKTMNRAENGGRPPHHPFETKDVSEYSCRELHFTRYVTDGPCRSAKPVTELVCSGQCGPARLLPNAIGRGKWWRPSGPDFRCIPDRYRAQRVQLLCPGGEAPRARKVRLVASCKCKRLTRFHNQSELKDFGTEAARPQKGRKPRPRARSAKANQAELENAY

[2] = biological target: T1, human sclerostin (SOST); test: ELISA binding to human sclerostin (Test Example 1)

IC50 [1]: 9.91 nM
EC50 [2]: 0.701 nM
B1: murine anti-human SOST monoclonal antibody Ab-1 (antibody, V domains shown)
VH: EVQLQQSGPELVKPGTSVKIPCQTSGYTFTDYNLDWLKQRPGESLEWIGDIDPNNGDILYNQKFRDKATLTVDTSSNTAYLELRSLTSEDTAVYYCARRWAYYFDYWGQGTTLTISS
VL: NIVMTQTPKLLFVSAGDRITITCKASQSVSNDVAWYQQKPGQSPKLLIYYTSNRFTGVPDRFTGSGYGTDFTLTINTVQAEDLAVYFCQQDYSSPVTFGAGTKLELK
notes: Murine antibody from the hybridoma cell strain Ab-1; also called murine Ab-1
